# Test results published in patent publication CN113135995A (SHANGHAI INST OF BIOLOGICAL PRODUCTS CO LTD, dated 2021).
# Key:
# [1] = target: T1, HER3胞外区重组蛋白 (recombinant HER3 extracellular domain protein, expressed in CHO cells) (human, UniProt P21860 20-643); test: ProteOn XPR36 SPR; antibody captured by goat anti-human IgG Fc on GLM chip, HER3 protein 0.625-10 nM as analyte
# T1 construct: also called HER3蛋白
# [2] = target: T1, HER3胞外区重组蛋白 (recombinant HER3 …); test: ProteOn XPR36 SPR, ratio of KD values
# [3] = target: T2, hGH标签的HER3胞外区蛋白 (hGH-tagged HER3 extracellular domain protein) (human, UniProt P21860 20-643); test: blocking ELISA: HRG coated, hGH-tagged HER3 ECD 1 ug/ml, antibody from 2 ug/ml in 1:3 steps, HRP anti-hGH detection
# T2 construct: also called HER3分子; not shown: hGH tag
# [4] = target: 细胞表面HER3分子 (HER3 on the surface of human tumour cells) (human, UniProt P21860 20-1342); test: cell-based or functional assay
# Sequence of 细胞表面HER3分子 (HER3 on the surface of human tumour cells) (P21860 20-1342 limits assumed): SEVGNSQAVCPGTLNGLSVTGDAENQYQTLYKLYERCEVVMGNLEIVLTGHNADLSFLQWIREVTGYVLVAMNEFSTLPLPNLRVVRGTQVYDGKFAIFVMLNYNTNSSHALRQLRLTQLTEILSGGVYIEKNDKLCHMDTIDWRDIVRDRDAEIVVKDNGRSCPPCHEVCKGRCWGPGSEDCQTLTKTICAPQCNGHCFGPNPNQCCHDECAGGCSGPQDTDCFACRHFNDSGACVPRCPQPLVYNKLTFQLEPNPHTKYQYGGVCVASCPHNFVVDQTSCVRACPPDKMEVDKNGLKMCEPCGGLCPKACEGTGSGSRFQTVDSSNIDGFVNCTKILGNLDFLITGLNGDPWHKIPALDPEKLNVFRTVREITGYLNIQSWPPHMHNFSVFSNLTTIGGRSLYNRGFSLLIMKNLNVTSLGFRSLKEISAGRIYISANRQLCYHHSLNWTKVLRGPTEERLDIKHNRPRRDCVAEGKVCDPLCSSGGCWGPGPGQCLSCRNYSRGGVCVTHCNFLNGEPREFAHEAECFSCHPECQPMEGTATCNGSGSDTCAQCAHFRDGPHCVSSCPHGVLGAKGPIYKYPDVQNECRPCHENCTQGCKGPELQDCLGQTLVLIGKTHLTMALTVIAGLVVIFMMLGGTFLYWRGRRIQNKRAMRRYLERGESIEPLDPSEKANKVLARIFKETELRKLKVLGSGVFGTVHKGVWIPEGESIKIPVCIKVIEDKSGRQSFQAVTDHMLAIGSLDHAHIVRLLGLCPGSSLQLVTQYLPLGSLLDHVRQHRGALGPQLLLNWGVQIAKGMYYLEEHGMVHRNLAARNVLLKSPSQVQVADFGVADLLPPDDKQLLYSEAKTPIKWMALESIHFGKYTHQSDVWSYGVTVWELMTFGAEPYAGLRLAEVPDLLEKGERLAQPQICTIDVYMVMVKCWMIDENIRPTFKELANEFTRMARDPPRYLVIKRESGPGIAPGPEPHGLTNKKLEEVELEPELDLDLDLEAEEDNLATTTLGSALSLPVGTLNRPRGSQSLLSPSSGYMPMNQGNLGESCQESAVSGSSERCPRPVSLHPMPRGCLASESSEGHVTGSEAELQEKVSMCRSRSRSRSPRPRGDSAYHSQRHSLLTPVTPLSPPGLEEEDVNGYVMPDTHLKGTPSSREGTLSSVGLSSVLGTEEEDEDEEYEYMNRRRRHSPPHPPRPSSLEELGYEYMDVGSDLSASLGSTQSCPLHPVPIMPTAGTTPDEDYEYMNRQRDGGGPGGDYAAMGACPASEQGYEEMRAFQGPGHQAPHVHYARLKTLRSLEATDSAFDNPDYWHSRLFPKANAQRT
# T1 sequence (P21860 20-643 limits assumed): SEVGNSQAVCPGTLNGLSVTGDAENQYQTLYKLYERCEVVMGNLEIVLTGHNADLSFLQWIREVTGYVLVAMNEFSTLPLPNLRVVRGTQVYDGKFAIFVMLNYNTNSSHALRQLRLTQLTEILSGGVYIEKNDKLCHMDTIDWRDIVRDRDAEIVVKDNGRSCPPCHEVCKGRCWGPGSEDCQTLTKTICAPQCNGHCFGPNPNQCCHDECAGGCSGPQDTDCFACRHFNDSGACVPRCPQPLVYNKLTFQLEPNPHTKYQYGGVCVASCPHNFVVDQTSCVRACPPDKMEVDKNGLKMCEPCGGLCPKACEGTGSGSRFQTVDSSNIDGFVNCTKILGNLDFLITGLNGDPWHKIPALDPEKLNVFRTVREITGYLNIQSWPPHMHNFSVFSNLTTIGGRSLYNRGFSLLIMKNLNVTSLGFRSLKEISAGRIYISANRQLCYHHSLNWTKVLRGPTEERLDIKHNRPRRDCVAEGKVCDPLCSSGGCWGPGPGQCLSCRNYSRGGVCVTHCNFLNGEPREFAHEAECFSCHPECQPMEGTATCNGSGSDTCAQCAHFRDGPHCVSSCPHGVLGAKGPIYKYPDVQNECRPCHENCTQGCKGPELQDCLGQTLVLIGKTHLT
# T2 sequence (P21860 20-643): as the sequence (P21860 20-643 limits assumed) above
binder,measurement,setting,value
"hu1044Y抗体 (optimised humanized anti-HER3 antibody hu1044Y) (antibody, human IgG1, kappa, V domains shown, hu1044 with heavy chain position 27 changed from Gly to Tyr) VH: QVQLVQSGAEVKKPGSSVKVSCKASGYTFSNYWIDWVKQAPGQGLEWMGEILPGSGGTDYNEKFKGRVTITADTSTSTAYMELSSLRSEDTAVYYCARDDYDVFAYWGQGTLVTVSS VL: DIVMTQSPGTLSLSPGERATLSCRSSKSLLHSNGITYLYWYQQKPGQAPRLLIYQMSNLASGIPDRFSSSGSGTDFTLTISRLEPEDFAVYYCAQNLELPWTFGQGTKVEIKR",Kd,[1],0.232 nM
same,fold increase in affinity against hu1044,[2],~2 倍 (fold)
"hu1044-7Y抗体 (optimised humanized anti-HER3 antibody hu1044-7Y) (antibody, human IgG1, kappa, V domains shown, hu1044-7 with heavy chain position 27 changed from Gly to Tyr; In the flow cytometry assays it was labelled with Dylight 488 NHS ester) VH: QVQLVQSGAEVKKPGSSVKVSCKASGYTFSNYWIDWVRQAPGQGLEWMGEILPGSGGTDYNEKFKGKATITADTSTSTAYMELSSLRSEDTAVYYCARDDYDVFAYWGQGTLVTVSS VL: DIVMTQSPGTLSLSPGERATLSCRSSKSLLHSNGITYLYWYQQKPGQAPRLLIYQMSNLASGVPDRFSSSGSGTDFTLTISRLEPEDFAVYYCAQNLELPWTFGQGTKVEIKR",Kd,[1],0.117 nM
same,IC50,[3],~0.1 µg/mL
same,fold increase in affinity against hu1044-7,[2],~3 倍 (fold)
same,HRG刺激的乳腺癌MCF-7细胞增殖 IC50 (CCK-8),[4],0.0133 µg/mL
"hu1044抗体 (humanized anti-HER3 monoclonal antibody hu1044) (antibody, V domains shown) VH: QVQLVQSGAEVKKPGSSVKVSCKASGGTFSNYWIDWVKQAPGQGLEWMGEILPGSGGTDYNEKFKGRVTITADTSTSTAYMELSSLRSEDTAVYYCARDDYDVFAYWGQGTLVTVSS VL: DIVMTQSPGTLSLSPGERATLSCRSSKSLLHSNGITYLYWYQQKPGQAPRLLIYQMSNLASGIPDRFSSSGSGTDFTLTISRLEPEDFAVYYCAQNLELPWTFGQGTKVEIKR",Kd,[1],0.442 nM
"hu1044-7抗体 (humanized anti-HER3 antibody variant hu1044-7) (antibody, V domains shown) VH: QVQLVQSGAEVKKPGSSVKVSCKASGGTFSNYWIDWVRQAPGQGLEWMGEILPGSGGTDYNEKFKGKATITADTSTSTAYMELSSLRSEDTAVYYCARDDYDVFAYWGQGTLVTVSS VL: DIVMTQSPGTLSLSPGERATLSCRSSKSLLHSNGITYLYWYQQKPGQAPRLLIYQMSNLASGVPDRFSSSGSGTDFTLTISRLEPEDFAVYYCAQNLELPWTFGQGTKVEIKR",Kd,[1],0.375 nM
